The nature of the series: soluble on expression in E. coli; label from the status in PepcDB or PDB records.
On to “MSQSKGKKRNPGLKIPKEAFEQPQTSSTPPRDLDSKACISIGNQNFEVKADDLEPIMELGRGAYGVVEKMRHVPSGQIMAVKRIRATVNSQEQKRLLMDLDISMRTVDCPFTVTFYGALFREGDVWICMELMDTSLDKFYKQVIDKGQTIPEDILGKIAVSIVKALEHLHSKLSVIHRDVKPSNVLINALGQVKMCDFGISGYLVDSVAKTIDAGCKPYMAPERINPELNQKGYSVKSDIWSLGITMIELAILRFPYDSWGTPFQQLKQVVEEPSPQLPADKFSAEFVDFTSQCLKKNSKERPTYPELMQHPFFTLHESKGTDVASFVKLILGDLEHHHHHH”, for which the “soluble on expression in E. coli” value was “soluble”.

For “VLFRQLEYFVAVAQERHFARAAEKCYVSQPALSSAIAKLERELNVTLINRGHSFEGLTREGERLVVWAKRILAEHAAFKAEVDAVRSGITGTLRLGTVPTASTTASLVLSAFCSAHPLAKVQVCSRLAATELYRRLREFELDAVIVHPETQDSDDVDLVPLYEEQYVLLSPADMLPPGTSTLVWRDAAQLPLALLTADMRDRQVIDAAFADHAVSAIPQVETDSVASLFAQVATGNWASIVPHTWLWAMPMSGPTGGEIRAVELVDPVLKAQIALATNALGPGSPVARALITCAQALALNEFFDTQLRGITRRR”, the “soluble on expression in E. coli” value is “not soluble”. For the sequence “MSSMTTTDNKAFLNELARLVGSSHLLTDPAKTARYRKGFRSGQGDALAVVFPGSLLELWRVLKACVTADKIILMQAANTGLTEGSTPNGNDYDRDVVIISTLRLDKLHVLGKGEQVLAYPGTTLYSLEKALKPLGREPHSVIGSSCIGASVIGGICNNSGGSLVQRGPAYTEMSLFARINEDGKLTLVNHLGIDLGETPEQILSKLDDDRIKDDDVRHDGRHAHDYDYVHRVRDIEADTPARYNADPDRLFESSGCAGKLAVFAVRLDTFEAEKNQQVFYIGTNQPEVLTEIRRHILANFENLPVAGEYMHRDIYDIAEKYGKDTFLMIDKLGTDKMPFFFNLKGRTDAMLEKVKFFRPHFTDRAMQKFGHLFPSHLPPRMKNWRDKYEHHLLLKMAGDGVGEAKSWLVDYFKQAEGDFFVCTPEEGSKAFLHRFAAAGAAIRYQAVHSDEVEDILALDIALRRNDTEWYEHLPPEIDSQLVHKLYYGHFMCYVFHQDYIVKKGVDVHALKEQMLELLQQRGAQYPAEHNVGHLYKAPETLQKFYRENDPTNSMNPGIGKTSKRKNWQEVE”, the “soluble on expression in E. coli” value was “soluble”.

For “SLHAQQKAEQLAEREEMVAELSAAKQQITQSEHWRAECELLNNEVRSLQSINTSLEADLREVTTRMEAAQQHADDKIRQMINSEQRLSEQFENLANRIFEHSNRRVDEQNRQSLNSLLSPLREQLDGFRRQVQDSFGKEAQERHTLTHEIRNLQQLNAQMAQEAINLTRALKGDNKTQGNWGEVVLTRVLEASGLREGYEYETQVSIENDARSRMQPDVIVRLPQGKDVVIDAKMTLVAYERYFNAEDDYTRESALQEHIASVRNHIRLLGRKDYQQLPGLRTLDYVLMFIPVEPAFLLALDRQPELITEALKNNIMLVSPTTLLVALRTIANLWRYEHQSRNAQQIADRASKLYDKMRLFVDDMSAIGQSLDKAQDNYRQAMKKLSSGRGNVLAQAEAFRGLGVEIKREINPDLAEQAVSQDEEYRLRSVPEQPNDEAYQRDDEYNQQSR”, the “soluble on expression in E. coli” value is recorded as “not soluble”.

Take “MVSAPPTLQDQAFRSLVRNEVLTVSDAECLIREFFPPLFKEASTQKKPKTIMILVEHWPYPCLHVGLLIDKPNFQIFQAILDGVDTWLKRKYRPRMGRLKKVDFRDAQHHASLDMQDEREGRDYLVGTLPKKQIVEDHSRTRKERLKLFHDLSFMSSLHEDKHQTLLLEWAKERTSFLHLCCEKLEIGAVEVSKVRNVLKFLQPELIKELKLNTVGNLSKLAKFVPFIRKMRNLQKLMLVRTFGTRTFTQEEKQNISKIISLFCKLSCLRHLTIDDVYFLTDQMKELLRCLEAPLVSLKITLCQLSQSDLESFAQRWNYSQLKHLCLRGVTLTNLDVTPLRDFLKRVAANLQTLDLEDCRMDDSHFRTLLPALIKCTQLTSINLYDNDISEDVLENFLHRTTNLSQLTTEMYPAPSEVYNESNYVIVEIFIQICSELMNKLMEVRQANSVCFGSSSCYDCDNRYLYEDDGDVTLCLCQE”: the “soluble on expression in E. coli” value is given as “not soluble”.

With “MKVAILGYGTVGSAVVKFLLENDKLIRARCGQSITPVIALARSPKKNALIPITHSVAEILNADVDVFVELMGGVDEAFKIVSEILKKKKAVVTANKAMLAYHRYELENLAKNLAFGYEASVAGGIPIIKVLKEGLSANNILAIKGILNGTSNYILSSMSQKNMSFKQALQIAQNLGYAEADPTFDIEGQDAAHKLLVLSSIAYNLKAKPEDILIEGISEIAPEDMYFANEFEFTIKLLGIAKVRENKVELRVHPTMIDKEKMLAKVDGVMNAISINGDLLGESLYYGAGAGGEATASAVISDLMDIARDQVKAPMLGFVNTLEYKLLSKDEIYTKYYLRVKVEDKIGILSKITQLMSENNISIDSFLQKPKKNDENYSTLFFTTHLTYEKSIQNLLEILRKQDFIKTKPFMMRIE”, the “soluble on expression in E. coli” value is reported as “not soluble”.

“MYVAVKGGEKAIDNAHRLLARKRRGDTALPELSVEQIRQQMPLAVSRVMTEGSLYDEQLAALAIKQAAGDLMEAIFLLRAYRTTLPRFAASLPLDTAGMRLQRRISATYKDLPGGQLLGPTFDYTHRLLDFSLLAEGDYPGPEVERGASLEPCPRVLGLLDREGLMTPEYELPGAVPDITREPLDFPTGRAQRLQALARGDEGFLLALGYSTQRGYGRNHPFAGEIRIGACEVWLEPEELGFAVPVGEIEVTECEMVNQFVGSREELPQFTRGYGLAFGYAERKAMGMALVDRALRAEEYGEEVVSPAQQEEFVLMHCDNVEAGGFVSHLKLPHYVDFQSELELIRKLRRPGVAESAQPTVQEKRA”: the “soluble on expression in E. coli” value is “not soluble”. Under “MEGPLTIPVLDKGFVRLVDQMGDDRAIVQAARVSYGEGTKTVREDAALIDYLMRHRHTSPFEMVVFKFHVKAPIFVARQWFRHRTASVNEISGRYSILKEEFYEPEAFRKQAKRNKQASEGALLDEEALALLRKVQQEAYGAYRALLEKGVAREMARMVLPLNLYTEFYWKQDLHNLFHFLKLRLAPEAQWEIRQYARAIAEIVKERVPLAWAAFEEHLLEGAFLSRTELRALRGLLTPEVYEKALSSLGLGGSRLKEALEKVFGPGEAL” stands “soluble”.

“MLNFLSISSEPKIKSLAIGKFDGLHLGHQALFKELKDPKALLIIEKKHYTKGYLTPLKYRAKLVGMPLFFVYLEEISQLNALDFLDLLKKKFPHLERLVVGYDFRFGHERQNDALFLKERFEKTIIVPEVKVQEISVHSKMIKLALSHGDLSLANKLLGRPYEVCGEVISDQGLGHKELAPTLNIKTKDFILPSFGVYASLVKIKDPIYQKSVSFIGNRLSTDQNFAIECHVLDTIIENPPQEIALRWVQKIRDNMRFSSLKELKNQIQQDILRAKEILR”: the “soluble on expression in E. coli” value is “not soluble”. Under “MGHHHHHHSHMAATAAVSPSDYLQPAASTTQDSQPSPLALLAATCSKIGPPAVEAAVTPPAPPQPTPRKLVPIKPAPLPLSPGKNSFGILSSKGNILQIQGSQLSASYPGGQLVFAIQNPTMINKGTRSNANIQYQAVPQIQASNSQTIQVQPNLTNQIQIIPGTNQAIITPSPSSHKPVPIKPAPIQKSSTTTTPVQSGANVVKLTGGGGNVTLTLPVNNLVNASDTGAPTQLLTASCQTGMLNSTRMFLFLAFINVL” stands “not soluble”; under “MKSHCNKMVGGELKPIIAALLPVEPFYPTQVPFVLSRYIYDVADRQQSSLDYVAVSALCALAAVIGNPHCS”, “not soluble”; under “MRGFLSGEFELSSVEDAEVVIINSCGVIDFTERKIIRRMLDLKREGKKVVLAGCLTRISKEALSVADSALSPDNLDMVVDAVYSALNGRKLFTERRFIDKAEFSHLKCRLRENAIAIVSISEGCLGKCSFCATKFARGRLRSFSMDAIVREAERAVRAGYREIQLTSQDTGAYGMDKGRAMLPELLRKISEIEGEFRVRVGMMNPQHAVRMLDELINAYSSEKIYKFLHIPVQSGDNRILEDMKRNHTVEDYVEVVEAFRNSFDDVLISTDIIVGFPTETEEAFWKSYELIKETRPDIVNITRYSARKGTPAARLRDIPGWIKKERSRKLTDLMRKIGLENNKRFVGKKLRVLVTKEGKNGRNLARMNSYRAVVTEGAVGEFVEVKIKDCRFNYLIGQLAAEQPQLEHHHHHH”, “not soluble”. Under “MSLQTRPILVVGATGKTGSRVAAKLEAKGAAVRRGSRHAEIPFDWESPATWAPALSGVSRAYVTYFPDLAFPGAVEKLEAFTKVAAASGLDQIVLLSGRGEHHARLGEKVVETSGIPFTIVRAAWFAQNFSEGYLRDPVVAGVLPMPGGDIAEPIIDIDDIADVVVAALSEDGHAGQLYEVTGPRLMTFAEMAKVLSTATGRPIRHLPISFEDFHANVAAAGGEFVADVFTAIARETLDGRNAYVSDGVERALGRKPRDFAAFAAAAASQGLWTAAEGHHHHHH” stands “soluble”; under “MKTTEFTMPEITISYKDNVKASERVKILSSETSYTYLKPFYAECMEHHEESYVMFLNRANKALGISLISKGGMAETVMDVKIILQTALKVHASGIVLSHNHPSGNLRPSEPDKKITTKINEACKVLDLHLLDHIILTEESYYSFADEGLL”, “not soluble”. For “MGSDKIHHHHHHMISNEQYDYLRAHPTFERLTRDSFDQLAKHIRFRKIPKGQIFFYAEDPRDYLFVLYKGYARIEQYDETDSFTYLDYIRQGGAFPFGDMFQDKPYHYTAIAITDLEYFIVPMVLFETLSKINPSQMVYICQKLSKVLRFQELRLRNAMRSKASDRVVQALALLYWDMCQRDQFATLPFEIHIQEISRLAATTRETVSHVLKQLKQDGKIAYSHKQLTYLDIDYFLENLTETH” the value was “not soluble”; for “MKHLTASEVRSTFINFFREKKEHTYVHSSSVIPHDDPTLLFANAGMNQFKPLFLGIADPNSDLAKLKRAVNTQKCIRAGGKHNDLDDVGKDVYHHTYFEMLGNWSFGDYFKKEIITWAWELLTTVYGIPAERLYVSVFGGDEANGVPADSEARDIWRSVGVPDERILNFGMKDNFWEMGDVGPCGPCSEIHYDRIGNRDASHLVNADDPMVVEIWNLVFIQFNREEGGVLKPLPAKHIDCGLGLERLIAVMQDKTSNYDTDIFQPIFEAIHKGSGVRAYTGFIGDEDKDGVDMAYRVVADHVRTLTIALSDGGRPDNSGRGYVLRRILRRGVRYASEKLNAQPGFFASLVPVVISILGETFPELSRDPVTVMDIINDEEKQFLKTLSRGRVLFQRAVQSLPEGTMTFPGDVSWRLYDTYGFPADLTQLMAEEKGLSVDNTAFEEARRKAIETSSAGTGKFRDTLDLDVHALAELQQKGVPTTDDSPKYAYTFTGEGSDAVYKFEPCVGKILAIRRDGKFVDQLAAGEEGAILLDRTNFYAEQGGQIYDVGVLTKVNDESNEFNVSNCQVRGGYIVLVGSAEGSFSVGDQVNERFDEDRKQLIMKNHTGTHVLNYALRKVLADSDQKGSLVAPDRMRFDFTNKAGMTVQQVKKAEEYAQQLIDTKGQVYAKNSPLGEAKKVKGLRAMFDETYPDPVRVVAVGTPVEQLLQNPDAEEGQNTTVEFCGGTHLQNVSHIGRIVIASEEAIAKGIRRIVALTGPEAERAIARADRLTARLEEESKHADKKDELLANKDKFKALQKKIQEIVDEANGAQLPYWRKDSIREKAKAIQKTLDGYTKAQQAAVAEKVLGEAKELAAVAEQPTVLVHVFAANANSKAIDNALKLLKDTKAVMAFSVNEDSGKVLCLAKVDKSLVSNGLKANEWVNEVCTVLGGKGGGKDANAQLTGENVDKLDAAVELAQKFALAAIN”, “soluble”; for “MASAVGEKMLDDFEGVLNWGSYSGEGAKVSTKIVSGKTGNGMEVSYTGTTDGYWGTVYSLPDGDWSKWLKISFDIKSVDGSANEIRFMIAEKSINGVGDGEHWVYSITPDSSWKTIEIPFSSFRRRLDYQPPGQDMSGTLDLDNIDSIHFMYANNKSGKFVVDNIKLIGALEHHHHHH”, “soluble”. Regarding “RPVGTIFVIGDTKEVMKHSHQLVPNPFKGHKINIMNPKVKPIIKEFSFLDGAFIISSTGRVVAAGRYLDVDPKKLEIDIPQGLGSRHLASAAITKVTKAIAITLSESGVIRVFKDGK”, the “soluble on expression in E. coli” value is given as “soluble”.
